Each block holds one binder with its values, some of them ahead of it.
Columns and labels:
ASC in pGilda = target: T1, ASC in pGilda (human, UniProt Q9ULZ3 1-195); assay: yeast two-hybrid, Leu read-out
T1 construct: Yeast two-hybrid construct
Protocol: (§1) Colonies were plated on both LEU+ and LEU− media and also used for a β-Gal-assay.

ASC-CARD in pGilda = target: T2, ASC-CARD in pGilda (human, UniProt Q9ULZ3 107-195); assay: yeast two-hybrid, β-Gal read-out
T2 construct: domain: CARD; Yeast two-hybrid construct; also called CARD domain of ASC
T2 sequence (looked up): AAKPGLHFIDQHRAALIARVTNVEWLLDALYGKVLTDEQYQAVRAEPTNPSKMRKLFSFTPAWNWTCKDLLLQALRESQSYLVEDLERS
Protocol: as §1

B1: endogenous IKKα (protein)
chain: MERPPGLRPGAGGPWEMRERLGTGGFGNVCLYQHRELDLKIAIKSCRLELSTKNRERWCHEIQIMKKLNHANVVKACDVPEELNILIHDVPLLAMEYCSGGDLRKLLNKPENCCGLKESQILSLLSDIGSGIRYLHENKIIHRDLKPENIVLQDVGGKIIHKIIDLGYAKDVDQGSLCTSFVGTLQYLAPELFENKPYTATVDYWSFGTMVFECIAGYRPFLHHLQPFTWHEKIKKKDPKCIFACEEMSGEVRFSSHLPQPNSLCSLVVEPMENWLQLMLNWDPQQRGGPVDLTLKQPRCFVLMDHILNLKIVHILNMTSAKIISFLLPPDESLHSLQSRIERETGINTGSQELLSETGISLDPRKPASQCVLDGVRGCDSYMVYLFDKSKTVYEGPFASRSLSDCVNYIVQDSKIQLPIIQLRKVWAEAVHYVSGLKEDYSRLFQGQRAAMLSLLRYNANLTKMKNTLISASQQLKAKLEFFHKSIQLDLERYSEQMTYGISSEKMLKAWKEMEEKAIHYAEVGVIGYLEDQIMSLHAEIMELQKSPYGRRQGDLMESLEQRAIDLYKQLKHRPSDHSYSDSTEMVKIIVHTVQSQDRVLKELFGHLSKLLGCKQKIIDLLPKVEVALSNIKEADNTVMFMQGKRQKEIWHLLKIACTQSSARSLVGSSLEGAVTPQTSAWLPPTSAEHDHSLSCVVTPQDGETSAQMIEENLNCLGHLSTIIHEANEEQGNSMMNLDWSWLTE
- TNFα-induced activation of endogenous IKKα (in vitro kinase assay, phosphorylation of GST-IKBα substrate by immunoprecipitated IKKα) (Myc-ASC-PAAD): ASC-PAAD potently suppressed TNFα-induced activation of endogenous IKKα in these cells

- binding result (ASC in pGilda): binds
- binding result (ASC-CARD in pGilda): binds
B2: ASC-CARD in pJG 4-5 (other, human, UniProt Q9ULZ3 107-195, looked up, not shown: large carriers)
chain: T2 sequence (looked up)
notes: domain: CARD; Yeast two-hybrid construct; also called CARD domain of ASC
